Assay results published in patent US7067619 (LA JOLLA CANCER RESEARCH FOUNDATION, dated 2006).
Bridge positions count the residues as written; N and C are the ends. Ends that are not written are not given here.

Columns and labels:
[1] = target: T1, α5β1 integrin isolated from human placental extract (human, UniProt P08648 42-1049; P05556 21-798); assay: phage binding to α5β1-coated wells
T1 construct: coated on plastic wells or captured by anti-α5 antibody; also called fibronectin receptor

[2] = target: T2, αvβ5 integrin isolated from human placental extract (human, UniProt P06756 31-1048; P18084 24-799); assay: affinity chromatography of placental extract
T2 sequence (P06756 31-1048, chain 1 of 2): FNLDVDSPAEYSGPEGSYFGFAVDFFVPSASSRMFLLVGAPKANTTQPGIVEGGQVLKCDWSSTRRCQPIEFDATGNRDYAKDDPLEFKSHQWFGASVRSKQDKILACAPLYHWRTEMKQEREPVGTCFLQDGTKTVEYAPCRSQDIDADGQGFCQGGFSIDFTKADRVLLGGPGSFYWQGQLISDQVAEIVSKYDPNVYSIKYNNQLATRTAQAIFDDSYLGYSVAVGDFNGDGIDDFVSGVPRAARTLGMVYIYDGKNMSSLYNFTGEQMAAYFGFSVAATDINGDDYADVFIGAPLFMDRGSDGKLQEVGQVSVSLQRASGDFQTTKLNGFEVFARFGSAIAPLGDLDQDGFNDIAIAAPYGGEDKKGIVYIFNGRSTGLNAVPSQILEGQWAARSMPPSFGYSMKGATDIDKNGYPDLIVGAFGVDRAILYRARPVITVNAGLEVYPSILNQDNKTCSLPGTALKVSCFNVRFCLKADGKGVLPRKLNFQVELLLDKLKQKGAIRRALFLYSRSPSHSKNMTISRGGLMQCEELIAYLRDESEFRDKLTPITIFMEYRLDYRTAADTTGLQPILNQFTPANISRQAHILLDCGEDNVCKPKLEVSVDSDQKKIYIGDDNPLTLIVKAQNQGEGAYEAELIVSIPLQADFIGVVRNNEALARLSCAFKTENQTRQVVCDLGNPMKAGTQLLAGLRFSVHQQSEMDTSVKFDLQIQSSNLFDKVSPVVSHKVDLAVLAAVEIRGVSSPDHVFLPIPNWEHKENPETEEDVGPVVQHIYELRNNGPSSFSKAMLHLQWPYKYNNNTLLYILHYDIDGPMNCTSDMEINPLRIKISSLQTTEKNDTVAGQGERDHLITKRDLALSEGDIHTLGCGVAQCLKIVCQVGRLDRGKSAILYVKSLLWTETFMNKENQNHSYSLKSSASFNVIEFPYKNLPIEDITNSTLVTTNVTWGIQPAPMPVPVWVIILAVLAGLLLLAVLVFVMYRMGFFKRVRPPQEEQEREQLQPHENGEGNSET
T2 sequence (P18084 24-799, chain 2 of 2): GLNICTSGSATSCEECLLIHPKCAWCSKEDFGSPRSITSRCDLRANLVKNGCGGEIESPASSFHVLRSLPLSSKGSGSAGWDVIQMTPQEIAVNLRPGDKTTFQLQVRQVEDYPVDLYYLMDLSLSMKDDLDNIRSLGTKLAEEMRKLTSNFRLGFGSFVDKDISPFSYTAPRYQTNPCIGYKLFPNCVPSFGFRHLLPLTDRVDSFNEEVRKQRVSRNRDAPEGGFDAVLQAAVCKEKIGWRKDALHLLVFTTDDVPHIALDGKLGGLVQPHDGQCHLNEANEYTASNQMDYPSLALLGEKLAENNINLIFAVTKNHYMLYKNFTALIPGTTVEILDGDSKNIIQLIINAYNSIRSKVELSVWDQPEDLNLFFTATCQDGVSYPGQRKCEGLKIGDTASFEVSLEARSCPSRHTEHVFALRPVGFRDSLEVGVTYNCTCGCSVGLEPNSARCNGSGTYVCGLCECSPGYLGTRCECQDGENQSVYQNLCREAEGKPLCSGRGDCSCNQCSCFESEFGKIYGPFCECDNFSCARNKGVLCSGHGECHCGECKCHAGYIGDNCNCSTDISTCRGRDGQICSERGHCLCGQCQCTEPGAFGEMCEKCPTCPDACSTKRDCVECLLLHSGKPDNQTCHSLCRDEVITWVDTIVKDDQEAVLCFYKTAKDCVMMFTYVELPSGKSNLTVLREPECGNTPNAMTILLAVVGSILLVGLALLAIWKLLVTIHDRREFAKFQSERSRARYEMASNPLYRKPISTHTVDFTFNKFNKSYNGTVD

[3] = target: T1, α5β1 integrin isolated from human …; assay: phage binding to integrin-coated wells
[4] = target: T3, αvβ3 integrin isolated from human placental extract (human, UniProt P06756 31-1048; P05106 27-788); assay: phage panning on coated integrin
T3 construct: isolated on GRGDSPK-Sepharose; said to be primarily αvβ3
T3 sequence (P06756 31-1048, chain 1 of 2): as the sequence (P06756 31-1048, chain 1 of 2) above
T3 sequence (P05106 27-788, chain 2 of 2): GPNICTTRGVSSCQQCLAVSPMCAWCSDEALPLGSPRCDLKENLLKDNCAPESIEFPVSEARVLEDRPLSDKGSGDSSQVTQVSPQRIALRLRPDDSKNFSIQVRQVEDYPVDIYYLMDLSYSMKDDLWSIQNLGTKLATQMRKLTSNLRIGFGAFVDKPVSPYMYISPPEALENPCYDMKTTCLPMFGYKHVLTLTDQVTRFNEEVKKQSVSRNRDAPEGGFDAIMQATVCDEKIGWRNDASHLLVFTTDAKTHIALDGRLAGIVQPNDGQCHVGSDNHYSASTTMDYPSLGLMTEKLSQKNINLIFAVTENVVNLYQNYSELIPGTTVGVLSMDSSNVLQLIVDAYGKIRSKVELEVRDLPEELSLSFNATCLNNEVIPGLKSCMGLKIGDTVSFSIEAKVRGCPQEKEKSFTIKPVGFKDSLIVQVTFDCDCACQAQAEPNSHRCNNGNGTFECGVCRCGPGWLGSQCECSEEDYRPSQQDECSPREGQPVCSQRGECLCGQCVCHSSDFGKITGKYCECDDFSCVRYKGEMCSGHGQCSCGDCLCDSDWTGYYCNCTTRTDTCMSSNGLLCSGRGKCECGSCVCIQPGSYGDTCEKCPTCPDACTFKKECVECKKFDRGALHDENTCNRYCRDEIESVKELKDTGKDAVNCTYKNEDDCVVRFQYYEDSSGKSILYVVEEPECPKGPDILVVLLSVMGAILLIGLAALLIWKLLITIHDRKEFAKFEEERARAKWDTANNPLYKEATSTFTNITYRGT
Experimental: In the first panning, the integrins were coated at 5 µg per well, and the library pool was incubated for 4 hours at 25° C. in TBS buffer containing 1% bovine serum albumin and 1 mM MnCl_2 (α_5β_1, α_vβ_3) 1 mM MgCl_2 ($\alphaIIb\beta_3$) or 1 mM CaCl_2 (α_vβ_5).

[5] = target: T2, αvβ5 integrin isolated from human …; assay: phage competition on αvβ5-coated wells
[6] = target: T3, αvβ3 integrin isolated from human …; assay: phage competition on αvβ3-coated wells
[7] = target: αvβ5 integrin on HT-29 and UCLA-P3 cells (UniProt P06756 31-1048; P18084 24-799); assay: cell-based or functional assay
αvβ5 integrin on HT-29 and UCLA-P3 cells, sequence (P06756 31-1048, chain 1 of 2): as the sequence (P06756 31-1048, chain 1 of 2) above
αvβ5 integrin on HT-29 and UCLA-P3 cells, sequence (P18084 24-799, chain 2 of 2): as the sequence (P18084 24-799, chain 2 of 2) above

[8] = target: αvβ3 integrin on IMR-90 cells (UniProt P06756 31-1048; P05106 27-788); assay: cell-based or functional assay
αvβ3 integrin on IMR-90 cells, sequence (P06756 31-1048, chain 1 of 2): as the sequence (P06756 31-1048, chain 1 of 2) above
αvβ3 integrin on IMR-90 cells, sequence (P05106 27-788, chain 2 of 2): as the sequence (P05106 27-788, chain 2 of 2) above

[9] = target: T3, αvβ3 integrin isolated from human …; assay: competition with phage on αvβ3-coated wells
[10] = target: T2, αvβ5 integrin isolated from human …; assay: competition with … phage on αvβ5-coated wells
Experimental: [SEQ ID NO:10] sequence were incubated for 1 hour in integrin-coated wells in the presence of the competing peptides or dimethyl sulfoxide solvent as a control.

T1 sequence (P08648 42-1049, chain 1 of 2): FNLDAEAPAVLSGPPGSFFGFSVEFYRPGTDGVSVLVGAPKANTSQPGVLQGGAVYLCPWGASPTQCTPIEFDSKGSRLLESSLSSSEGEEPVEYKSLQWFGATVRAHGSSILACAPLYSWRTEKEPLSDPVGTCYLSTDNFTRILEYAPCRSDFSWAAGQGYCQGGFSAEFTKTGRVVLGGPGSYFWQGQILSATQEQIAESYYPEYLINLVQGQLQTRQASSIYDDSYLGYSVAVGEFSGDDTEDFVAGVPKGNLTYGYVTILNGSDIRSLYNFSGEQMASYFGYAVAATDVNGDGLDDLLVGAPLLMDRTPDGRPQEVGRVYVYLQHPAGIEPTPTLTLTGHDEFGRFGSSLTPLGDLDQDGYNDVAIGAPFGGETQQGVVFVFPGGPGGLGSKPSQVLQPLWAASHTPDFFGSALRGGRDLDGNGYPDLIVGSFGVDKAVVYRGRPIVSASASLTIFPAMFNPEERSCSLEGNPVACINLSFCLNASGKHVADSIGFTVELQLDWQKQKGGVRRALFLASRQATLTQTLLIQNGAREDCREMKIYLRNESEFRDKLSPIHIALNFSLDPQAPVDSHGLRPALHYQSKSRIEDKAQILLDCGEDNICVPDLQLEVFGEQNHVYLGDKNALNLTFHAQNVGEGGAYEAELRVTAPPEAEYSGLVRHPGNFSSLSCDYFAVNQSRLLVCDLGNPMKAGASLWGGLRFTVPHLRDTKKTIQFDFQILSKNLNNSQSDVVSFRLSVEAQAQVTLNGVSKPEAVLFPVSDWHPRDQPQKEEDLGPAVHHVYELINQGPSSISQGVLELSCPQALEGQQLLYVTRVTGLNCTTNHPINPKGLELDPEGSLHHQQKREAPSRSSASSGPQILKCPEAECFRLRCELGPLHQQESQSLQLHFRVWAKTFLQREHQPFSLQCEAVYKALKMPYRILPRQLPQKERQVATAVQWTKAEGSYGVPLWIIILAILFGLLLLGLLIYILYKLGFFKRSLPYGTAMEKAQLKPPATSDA
T1 sequence (P05556 21-798, chain 2 of 2): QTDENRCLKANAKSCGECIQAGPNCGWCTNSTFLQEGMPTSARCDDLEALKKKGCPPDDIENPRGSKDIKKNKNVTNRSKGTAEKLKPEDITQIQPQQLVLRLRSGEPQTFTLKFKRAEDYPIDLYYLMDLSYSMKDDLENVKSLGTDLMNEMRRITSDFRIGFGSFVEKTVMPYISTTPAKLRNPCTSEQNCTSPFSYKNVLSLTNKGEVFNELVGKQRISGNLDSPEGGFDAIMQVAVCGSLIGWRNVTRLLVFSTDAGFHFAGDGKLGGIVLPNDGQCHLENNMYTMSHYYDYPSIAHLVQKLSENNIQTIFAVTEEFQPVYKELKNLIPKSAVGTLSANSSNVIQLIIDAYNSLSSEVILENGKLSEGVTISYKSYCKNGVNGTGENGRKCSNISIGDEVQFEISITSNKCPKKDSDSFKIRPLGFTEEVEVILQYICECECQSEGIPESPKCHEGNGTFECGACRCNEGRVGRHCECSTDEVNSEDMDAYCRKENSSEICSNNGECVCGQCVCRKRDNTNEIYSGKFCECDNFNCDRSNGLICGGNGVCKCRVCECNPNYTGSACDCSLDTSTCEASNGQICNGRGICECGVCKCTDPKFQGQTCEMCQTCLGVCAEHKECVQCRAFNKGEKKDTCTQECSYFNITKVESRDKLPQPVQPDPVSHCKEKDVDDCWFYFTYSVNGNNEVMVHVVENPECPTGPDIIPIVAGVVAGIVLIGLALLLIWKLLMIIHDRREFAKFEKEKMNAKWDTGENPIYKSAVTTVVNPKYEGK

B1: CRGDCL-displaying phage (peptide)
peptide: CRGDCL
notes: on fuse 5 phage, fused to pIII; also called phage expressing CRGDCL
B1: binds [1].

B2: vitronectin purified from human plasma (ligand, UniProt P04004 20-478, looked up)
chain: DQESCKGRCTEGFNVDKKCQCDELCSYYQSCCTDYTAECKPQVTRGDVFTMPEDEYTVYDDGEEKNNATVHEQVGGPSLTSDLQAQSKGNPEQTPVLKPEEEAPAPEVGASKPEGIDSRPETLHPGRPQPPAEEELCSGKPFDAFTDLKNGSLFAFRGQYCYELDEKAVRPGYPKLIRDVWGIEGPIDAAFTRINCQGKTYLFKGSQYWRFEDGVLDPDYPRNISDGFDGIPDNVDAALALPAHSYSGRERVYFFKGKQYWEYQFQHQPSQEECEGSSLSAVFEHFAMMQRDSWEDIFELLFWGRTSAGTRQPQFISRDWHGVPGQVDAAMAGRIYISGMAPRPSLAKKQRFRHRNRKGYRSQRGHSRGRNQNSRRPSRATWLSLFSSEESNLGANNYDDYRMDWLVPATCEPIQSVFFFSGDKYYRVNLRTRRVDTVDPPYPRSIAQYWLGCPAPGHL
notes: also called labeled vitronectin
B2: binds [2].

B3: CPSRLDSPC phage (peptide)
peptide: CPSRLDSPC
modifications: disulfide 1-9 (inferred); not fully specified (N-terminus, C-terminus)
notes: on fuse 5 phage, fused to pIII; also called RLD-containing phage
B3: no binding [3]; binds [4].

B4: cyclic peptide A*CPSRLDSPC*G (peptide)
peptide: ACPSRLDSPCG
modifications: disulfide 2-10 (inferred)
notes: synthetic; also called RLD-containing peptide
With B4 the “fold lower activity than *CRGDC*” value [5] was 1000 fold and the “fold lower activity than *CRGDC*” value [6] was 100 fold.

B5: cyclized peptide ACDCRGDCFCG (peptide)
peptide: ACDCRGDCFCG
modifications: disulfide (positions not given here); also: two disulfide bonds, pairing not determined
notes: synthetic; also called double disulfide bond-containing peptide
In the case of B5, the “IC50 of inhibition of attachment of HT-29 cells to vitronectin” value [7] is reported as 600 nM, the “IC50 of inhibition of attachment of UCLA-P3 cells to vitronectin” value [7] is reported as 600 nM and the “fold enhancement in activity relative to *CRGDC*, UCLA-P3 cells” value [7] is reported as 20 fold. The “fold higher affinity than *CRGDC*, attachment of HT-29 cells to vitronectin” value [7] was 40 fold, the “fold higher affinity than A*CRGDGWC*G, attachment of HT-29 cells to vitronectin” value [7] was 40 fold and the “IC50 of inhibition of attachment of IMR-90 cells to vitronectin” value [8] was 200 nM. For the same binder, the “fold more effective than *CRGDC*, attachment of IMR-90 cells to vitronectin” value [8] was 20 fold, the “fold better inhibition than *CRGDC*” value [9] was 5 fold and the “fold more potent than *CRGDC*” value [10] was 10 fold.
